From patent publication US20060241051A1 (Takeda / Millennium, published 2006)
Square brackets hold non-standard residues; d marks the D form. Primed or numbered codes have the meaning given here. Ends that are not written are not given here. * marks the point of attachment. Propanoyl(3-indol-3-yl) = O=C(CCc1c[nH]c2ccccc12)*; Phe(3-Cl) = N[C@@H](Cc1cccc(Cl)c1)C(=O)O; Phe(4-Cl) = N[C@@H](Cc1ccc(Cl)cc1)C(=O)O; Phe(4-NH2) = Nc1ccc(C[C@H](N)C(=O)O)cc1; Phe(2-Cl) = N[C@@H](Cc1ccccc1Cl)C(=O)O; 1Nal = N[C@@H](Cc1cccc2ccccc12)C(=O)O; 2Nal = N[C@@H](Cc1ccc2ccccc2c1)C(=O)O; Cyclohexanecarbonyl = O=C(C1CCCCC1)*; Arg(Me) = CNC(=N)NCCC[C@H](N)C(=O)O; Diphenylacetyl′ = not defined here; d3Pal = N[C@H](Cc1cccnc1)C(=O)O; amidino = N=C(N)*; azaGly = NNC(=O)O

Legend:
[1] = target: T1, human OT7T175 (metastin receptor) (human, UniProt Q969F8 1-398); assay: FMAT competition with Cy-5-labeled metastin (40-54), hOT7T175-expressed CHO cells
T1 construct: expressed on CHO cells (hOT7T175-expressed CHO cells; hOT7T175/CHO); also called hOT7T175; h0T7T175
T1 sequence (Q969F8 whole entry L364H): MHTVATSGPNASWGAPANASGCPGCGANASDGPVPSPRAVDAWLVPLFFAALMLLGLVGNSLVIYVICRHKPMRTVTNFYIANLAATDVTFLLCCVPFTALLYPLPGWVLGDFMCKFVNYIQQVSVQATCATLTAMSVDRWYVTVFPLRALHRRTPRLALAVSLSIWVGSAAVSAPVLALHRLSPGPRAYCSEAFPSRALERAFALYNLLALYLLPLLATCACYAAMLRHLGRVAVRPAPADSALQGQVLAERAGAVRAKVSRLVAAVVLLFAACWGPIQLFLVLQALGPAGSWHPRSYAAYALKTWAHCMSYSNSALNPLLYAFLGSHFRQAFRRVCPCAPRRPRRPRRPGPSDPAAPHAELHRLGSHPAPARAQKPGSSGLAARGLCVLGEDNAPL
Experimental: h0T7T175-Expressed CHO cells were cultured in MEM-α medium (nucleic acid-free) containing 10% dialyzed serum. The medium was removed and the adherent cells were washed with PBS. Then, PBS containing 5 mM EDTA was added and the cells were scraped from a flask with a cell scraper. […] To each well of a 96-Well Black Clear Bottom Plate (Applied Biosystems, Inc.), 10 μL of assay buffer containing 1% dimethylsulfoxide was added to examine total binding, 10 μL of 10 μM non-labeled peptide (having the same amino acid sequence as that of the labeled one) solution diluted with assay buffer to examine non-specific binding, and 10 μL of a test compound diluted with assay buffer to examine the binding inhibition activity of the test compound, respectively. Furthermore, 90 μL each of the cell suspension was dispensed to each well. […] The specific binding is a value obtained by subtracting the non-specific binding from the total binding.

[2] = target: T1, human OT7T175 (metastin receptor); assay: cell-based or functional assay

Row | Binder | IC50 [1] [nM] | intracellular Ca ion level-increasing activity (FLIPR) [2]
1 | [dY]NFNSF[azaGly]L[Arg(Me)]F-NH2 [Compound No. 244: [D-Tyr1,Phe3,AzaGly7,Arg(Me)9]MS10] | 77 | 1 specific activity to metastin (1-54)
2 | [dY]N[Phe(2-Cl)]NSF[azaGly]L[Arg(Me)]F-NH2 [Compound No. 247: [D-Tyr1,Phe(2CL) 3,AzaGly7,Arg(Me)9]MS10] | 45 | 1 specific activity to metastin (1-54)
3 | [dY]N[Phe(3-Cl)]NSF[azaGly]L[Arg(Me)]F-NH2 (N-terminus assumed; SMILES CNC(=N)NCCC[C@H](NC(=O)[C@H](CC(C)C)NC(=O)NNC(=O)[C@H](Cc1ccccc1)NC(=O)[C@H](CO)NC(=O)[C@H](CC(N)=O)NC(=O)[C@H](Cc1cccc(Cl)c1)NC(=O)[C@H](CC(N)=O)NC(=O)[C@H](N)Cc1ccc(O)cc1)C(=O)N[C@@H](Cc1ccccc1)C(N)=O) [Compound No. 248: [D-Tyr1,Phe(3Cl) 3,AzaGly7,Arg(Me)9]MS10] | 58 | 2 specific activity to metastin (1-54)
4 | [dY]N[Phe(4-Cl)]NSF[azaGly]L[Arg(Me)]F-NH2 [Compound No. 249: [D-Tyr1,Phe(4Cl) 3,AzaGly7,Arg(Me)9]MS10] | 150 | 1 specific activity to metastin (1-54)
5 | [dY]N[Phe(4-NH2)]NSF[azaGly]L[Arg(Me)]F-NH2 [Compound No. 250: [D-Tyr1,Phe(4NH2) 3,AzaGly7,Arg(Me)9]MS10] | 3.7 | 1 specific activity to metastin (1-54)
6 | [dY][dN]FNSF[azaGly]L[Arg(Me)]F-NH2 [Compound No. 257: [D-Tyr1,D-Asn2,Phe3,AzaGly7,Arg(Me)9]MS10] | 40 | 3 specific activity to metastin (1-54)
7 | [dA]NWNSF[azaGly]L[Arg(Me)]F-NH2 [Compound No. 259: [D-Ala1,AzaGly7,Arg(Me)9]MS10] | 250 | 1 specific activity to metastin (1-54)
8 | [dY][dN]TNSF[azaGly]L[Arg(Me)]F-NH2 (N-terminus assumed; SMILES CNC(=N)NCCC[C@H](NC(=O)[C@H](CC(C)C)NC(=O)NNC(=O)[C@H](Cc1ccccc1)NC(=O)[C@H](CO)NC(=O)[C@H](CC(N)=O)NC(=O)[C@@H](NC(=O)[C@@H](CC(N)=O)NC(=O)[C@H](N)Cc1ccc(O)cc1)[C@@H](C)O)C(=O)N[C@@H](Cc1ccccc1)C(N)=O) [Compound No. 284: [D-Tyr1,D-Asn2,Thr3,AzaGly7,Arg(Me)9]MS10] | 34 | 1 specific activity to metastin (1-54)
9 | [dY][dS]WNSF[azaGly]L[Arg(Me)]F-NH2 [Compound No. 287: [D-Tyr1,D-Ser2,AzaGly7,Arg(Me)9]MS10] | 2.3 | 2 specific activity to metastin (1-54)
10 | [dY][dH]WNSF[azaGly]L[Arg(Me)]F-NH2 [Compound No. 288: [D-Tyr1,D-His2,AzaGly7,Arg(Me)9]MS10] | 0.072 | 1 specific activity to metastin (1-54)
11 | [dY]N[1Nal]NSF[azaGly]L[Arg(Me)]F-NH2 (N-terminus assumed; SMILES CNC(=N)NCCC[C@H](NC(=O)[C@H](CC(C)C)NC(=O)NNC(=O)[C@H](Cc1ccccc1)NC(=O)[C@H](CO)NC(=O)[C@H](CC(N)=O)NC(=O)[C@H](Cc1cccc2ccccc12)NC(=O)[C@H](CC(N)=O)NC(=O)[C@H](N)Cc1ccc(O)cc1)C(=O)N[C@@H](Cc1ccccc1)C(N)=O) [Compound No. 245: [D-Tyr1,Nal(1)3,AzaGly7,Arg(Me)9]MS10] | 98 | 1 specific activity to metastin (1-54)
12 | [dY]N[2Nal]NSF[azaGly]L[Arg(Me)]F-NH2 (N-terminus assumed; SMILES CNC(=N)NCCC[C@H](NC(=O)[C@H](CC(C)C)NC(=O)NNC(=O)[C@H](Cc1ccccc1)NC(=O)[C@H](CO)NC(=O)[C@H](CC(N)=O)NC(=O)[C@H](Cc1ccc2ccccc2c1)NC(=O)[C@H](CC(N)=O)NC(=O)[C@H](N)Cc1ccc(O)cc1)C(=O)N[C@@H](Cc1ccccc1)C(N)=O) [Compound No. 246: [D-Tyr1,Nal(2) 3,AzaGly7,Arg(Me)9]MS10] | 7.1 | 2 specific activity to metastin (1-54)
13 | [dY]FNSF[azaGly]L[Arg(Me)]F-NH2 [Compound No. 254: des(1)-[D-Tyr2,Phe3,AzaGly7,Arg(Me)9]MS10] | 11 | 1 specific activity to metastin (1-54)
14 | [dY][2Nal]NSF[azaGly]L[Arg(Me)]F-NH2 [Compound No. 255: des(1)-[D-Tyr2,Nal(2) 3,AzaGly7,Arg(Me)9]MS10] | 33 | 1 specific activity to metastin (1-54)
15 | [d3Pal]FNSF[azaGly]L[Arg(Me)]F-NH2 [Compound No. 256: des(1)-[D-Pya(3) 2,Phe3,AzaGly7,Arg(Me)9]MS10] | 22 | 1 specific activity to metastin (1-54)
16 | [d3Pal]WNSF[azaGly]L[Arg(Me)]F-NH2 (N-terminus assumed; SMILES CNC(=N)NCCC[C@H](NC(=O)[C@H](CC(C)C)NC(=O)NNC(=O)[C@H](Cc1ccccc1)NC(=O)[C@H](CO)NC(=O)[C@H](CC(N)=O)NC(=O)[C@H](Cc1c[nH]c2ccccc12)NC(=O)[C@H](N)Cc1cccnc1)C(=O)N[C@@H](Cc1ccccc1)C(N)=O, also called [D-Pya(3)2,AzaGly7,Arg(Me)9]MS10-(2-10)) [Compound No. 289: des(1)-[D-Pya(3) 2,AzaGly7,Arg(Me)9]MS10] | 8.4 | 1 specific activity to metastin (1-54)
17 | [d3Pal]NWNSF[azaGly]L[Arg(Me)]F-NH2 (N-terminus assumed; SMILES CNC(=N)NCCC[C@H](NC(=O)[C@H](CC(C)C)NC(=O)NNC(=O)[C@H](Cc1ccccc1)NC(=O)[C@H](CO)NC(=O)[C@H](CC(N)=O)NC(=O)[C@H](Cc1c[nH]c2ccccc12)NC(=O)[C@H](CC(N)=O)NC(=O)[C@H](N)Cc1cccnc1)C(=O)N[C@@H](Cc1ccccc1)C(N)=O) [Compound No. 258: [D-Pya(3)1,AzaGly7,Arg(Me)9]MS10] | 90 | 2 specific activity to metastin (1-54)
18 | {Propanoyl(3-indol-3-yl)}-NSF[azaGly]L[Arg(Me)]F-NH2 [Compound No. 260: des(1-3)-3-(3-Indolyl)propionyl-[AzaGly7,Arg(Me)9]MS10] | 320 | 5 specific activity to metastin (1-54)
19 | {Indole‑3‑carbonyl}-NSF[azaGly]L[Arg(Me)]F-NH2 (also called des(1-3)-Indole-3-carboxyl-[AzaGly7,Arg(Me)9]MS10) [Compound No. 265: des(1-3)-Indole-3-carbonyl-[AzaGly7,Arg(Me)9]MS10] | 95 | 3 specific activity to metastin (1-54)
20 | {Indole‑3‑acetyl}-NSF[azaGly]L[Arg(Me)]F-NH2 [Compound No. 266: des(1-3)-Indole-3-acetyl-[AzaGly7,Arg(Me)9]MS10] | 230 | 2 specific activity to metastin (1-54)
21 | {4‑(3-Indolyl)butyryl}-NSF[azaGly]L[Arg(Me)]F-NH2 [Compound No. 267: des(1-3)-4-(3-Indolyl)butyryl-[AzaGly7,Arg(Me)9]MS10] | 360 | 2 specific activity to metastin (1-54)
22 | {Diphenylacetyl′}-NSF[azaGly]L[Arg(Me)]F-NH2 [Compound No. 268: des(1-3)-Diphenylacetyl-[AzaGly7,Arg(Me)9]MS10] | 550 | 1 specific activity to metastin (1-54)
23 | {3‑Phenylpropionyl}-NSF[azaGly]L[Arg(Me)]F-NH2 [Compound No. 269: des(1-3)-3-Phenylpropionyl-[AzaGly7,Arg(Me)9]MS10] | 470 | 3 specific activity to metastin (1-54)
24 | [dY]NFNSFF[azaGly]L[Arg(Me)]F-NH2 (11 residues; also called Endo-Phe5a-[D-Tyr1,Phe3,AzaGly7,Arg(Me)9]MS10) [Compound No. 270: [D-Tyr1,Phe3,Ser-Phe5,AzaGly7,Arg(Me)9]MS10] | 15 | 1 specific activity to metastin (1-54)
25 | WNSF[azaGly]L[Arg(Me)]F-NH2 (N-terminus assumed; SMILES CNC(=N)NCCC[C@H](NC(=O)[C@H](CC(C)C)NC(=O)NNC(=O)[C@H](Cc1ccccc1)NC(=O)[C@H](CO)NC(=O)[C@H](CC(N)=O)NC(=O)[C@@H](N)Cc1c[nH]c2ccccc12)C(=O)N[C@@H](Cc1ccccc1)C(N)=O) [Compound No. 271: des(1-2)-[AzaGly7,Arg(Me)9]MS10] | 120 | 1 specific activity to metastin (1-54)
26 | Ac-WNSF[azaGly]L[Arg(Me)]F-NH2 (SMILES CNC(=N)NCCC[C@H](NC(=O)[C@H](CC(C)C)NC(=O)NNC(=O)[C@H](Cc1ccccc1)NC(=O)[C@H](CO)NC(=O)[C@H](CC(N)=O)NC(=O)[C@H](Cc1c[nH]c2ccccc12)NC(C)=O)C(=O)N[C@@H](Cc1ccccc1)C(N)=O) [Compound No. 272: des(1-2)-Acetyl-[AzaGly7,Arg(Me)9]MS10] | 540 | 2 specific activity to metastin (1-54)
27 | amidino-WNSF[azaGly]L[Arg(Me)]F-NH2 (SMILES CNC(=N)NCCC[C@H](NC(=O)[C@H](CC(C)C)NC(=O)NNC(=O)[C@H](Cc1ccccc1)NC(=O)[C@H](CO)NC(=O)[C@H](CC(N)=O)NC(=O)[C@H](Cc1c[nH]c2ccccc12)NC(=N)N)C(=O)N[C@@H](Cc1ccccc1)C(N)=O) [Compound No. 273: des(1-2)-Amidino-[AzaGly7,Arg(Me)9]MS10] | 300 | 5 specific activity to metastin (1-54)
28 | {n‑Hexanoyl}-NSF[azaGly]L[Arg(Me)]F-NH2 [Compound No. 277: des(1-3)-n-Hexanoyl-[AzaGly7,Arg(Me)9]MS10] | 54 | 2 specific activity to metastin (1-54)
29 | Cyclohexanecarbonyl-NSF[azaGly]L[Arg(Me)]F-NH2 (SMILES CNC(=N)NCCC[C@H](NC(=O)[C@H](CC(C)C)NC(=O)NNC(=O)[C@H](Cc1ccccc1)NC(=O)[C@H](CO)NC(=O)[C@H](CC(N)=O)NC(=O)C1CCCCC1)C(=O)N[C@@H](Cc1ccccc1)C(N)=O) [Compound No. 278: des(1-3)-Cyclohexanecarbonyl-[AzaGly7, Arg(Me)9]MS10] | 110 | 2 specific activity to metastin (1-54)
